Results reported in publication PMC7319273 (Science (New York, N.y.), 2020).

B1: 1M-1D2 (human monoclonal antibody) (antibody, V domains shown)
VH: QVQLVESGGGLVQPGGSLRLSCAASGFTFSSYAMHWVRQAPGKGLEYVSAISGNGGSTYYAKSVKGRFTISRDNSKNTLYLQMGSLRAEDMAVYYCARGAEYYDFWSGYYSAYFDYWGQGTLVTVSS
VL: QAVVTQPPSASGTPGQRVTISCSGSSSNIGSNYVYWYQQLPGTAPKLLIYNNNQRPSGVPDRFSGSKSGTSASLAISGLRSEDEADYYCAAWDDSLIYVLFGGGTKLTVL
B2: 0304-3H3 (human monoclonal antibody) (antibody, V domains shown)
VH: EVQLVESGPGLVKPSETLSLTCTASGGSISTYYWSWIRQPPGKGLEWIGYIYYSGSTNYNPSLKSRVTISVDTSKNQFSLKLSSVTAADTAVYYCARDRIAPVGKFFGWYFDLWGRGTLVTVSS
VL: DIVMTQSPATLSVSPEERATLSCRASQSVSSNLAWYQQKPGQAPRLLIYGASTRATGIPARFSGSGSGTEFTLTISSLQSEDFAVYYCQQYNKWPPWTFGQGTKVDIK
notes: also called mAb 0304-3H3
B3: 2M-10B11 (human monoclonal antibody) (antibody, V domains shown)
VH: EVQLVESGGGLVQPGGSLRLSCAASGFTVSSNYMSWVRQAPGKGLEWVSVIYSGGSTYYADSVKGRFTISRDNSKNTLYLQMNSLRAEDTAVYYCARATWLRGVMDVWGQGTTVTVSS
VL: QSALTQPHSVSESPGKTVTISCTGSSGSIASNYVQWYQQRPGSAPTTVIYEDNQRPSGVPDRFSGSIDSSSNSASLTISGLKTEDEADYYCQSYDSSNHWVFGGGTKLTVL
notes: ELISA group 2B; also called mAb 2M-10B11
B4: 9A1 (human monoclonal antibody) (antibody, V domains shown)
VH: EVQLLESGGGVVQPGRSLRLSCVVSGFTFNNYGMHWVRQAPGKGLEWVAVISYEGSVKYYGDHVDGRFTISRDPFKNTLYLHMNNLRPDDTAVYYCAKVSAIFWLGQGLSPIDVWGQGTTVTVSS
VL: DIVMTQSPATLSASPGERVTLSCRASQNIRNNLAWYQQKPGQAPRLLIHGASTRAAGAPARFSGSGSDTQFTLTVSSLQSEDFAVYYCHQYSKWPVTFGGGTKVDIK
notes: also called mAb 9A1

biological target: T1, SARS-CoV-2 Spike protein extracellular domain (S-ECD), as used in ELISA and BLI (SARS-CoV-2, Wuhan-Hu-1 (P0DTC2)); assay: cell-based or functional assay; settings: not given

**Q.** B1 was tested. Which “neutralization of authentic SARS-CoV-2 in Vero-E6 cells, EC50” value did it give?
**A.** Its value is 28 µg/mL.

**Q.** With B2 as the binder, how does the “neutralization of authentic SARS-CoV-2 in Vero-E6 cells, EC50” value read?
**A.** Its value is 0.04 µg/mL.

biological target: T1, SARS-CoV-2 Spike protein extracellular …; assay: BLI; settings: both partners purified

**Q.** B1 was tested. Which Kd did it give?
**A.** Its Kd is < 2.14 nM.

**Q.** For B3, which Kd is on record?
**A.** Its Kd is < 2.14 nM.

**Q.** B2 was tested. Which Kd did it give?
**A.** Its Kd is < 2.14 nM.

**Q.** For B4, which Kd is on record?
**A.** Its Kd is < 2.14 nM.
